Source: patent publication US20250066745A1, “MUTANTS AND USE THEREOF” (BGI SHENZHEN, priority 2021, published 2025)
Changes are numbered by the printed parent chain. Numbers in names are those of the source.

B1: N27D V29Y A30G V31L A32V S33K A36D L40V: Gaussia luciferase mutant (protein)
chain: MGVKVLFALICIAVAEAKPTENNEDFDIYGLVKNFDTTDVDADRGKLPGKKLPLEVLKEMEANARKAGCTRGCLICLSHIKCTPKMKKFIPGRCHTYEGDKESAQGGIGEAIVDIPEIPGFKDLEPMEQFIAQVDLCVDCTTGCLKGLANVQCSDLLKKWLPQRCATFASKIQGQVDKIKGAGGD
modifications: SIGNAL (1)..(17)
notes: Gaussia luciferase mutant
B2: I10T C11S A13D A15I E16R A17S: Gaussia luciferase mutant (protein)
chain: MGVKVLFALTSIDVIRSKPTENNEDFNIVAVASNFATTDLDADRGKLPGKKLPLEVLKEMEANARKAGCTRGCLICLSHIKCTPKMKKFIPGRCHTYEGDKESAQGGIGEAIVDIPEIPGFKDLEPMEQFIAQVDLCVDCTTGCLKGLANVQCSDLLKKWLPQRCATFASKIQGQVDKIKGAGGD
modifications: SIGNAL (1)..(17)
notes: Gaussia luciferase mutant
B3: K66N E102A S103T A104G E110G D123N L124M V138D K180: Gaussia luciferase mutant (protein)
chain: MGVKVLFALICIAVAEAKPTENNEDFNIVAVASNFATTDLDADRGKLPGKKLPLEVLKEMEANARNAGCTRGCLICLSHIKCTPKMKKFIPGRCHTYEGDKATGQGGIGGAIVDIPEIPGFKNMEPMEQFIAQVDLCDDCTTGCLKGLANVQCSDLLKKWLPQRCATFASKIQGQVDKIKGAGGD
B4: K66N H79K P84K E102K S103I E110P L124M: Gaussia luciferase mutant (protein)
chain: B3 chain with H79K, P84K, A102K, T103I, G104A, G110P, N123D, D138V
modifications: SIGNAL (1)..(17)
notes: Gaussia luciferase mutant
B5: K66N E102D S103T E110G L124M V138E: Gaussia luciferase mutant (protein)
chain: B3 chain with A102D, G104A, N123D, D138E
modifications: SIGNAL (1)..(17)
notes: Gaussia luciferase mutant
B6: K66R H79K P84K E102D S103I A104G L124M V138E: Gaussia luciferase mutant (protein)
chain: B3 chain with N66R, H79K, P84K, A102D, T103I, G110E, N123D, D138E
modifications: SIGNAL (1)..(17)
notes: Gaussia luciferase mutant
B7: K66N H79K E102D E110P L124M: Gaussia luciferase mutant (protein)
chain: B3 chain with H79K, A102D, T103S, G104A, G110P, N123D, D138V
modifications: SIGNAL (1)..(17)
notes: Gaussia luciferase mutant
B8: K66N P84A E102K S103I E110G L124M V138E: Gaussia luciferase mutant (protein)
chain: B3 chain with P84A, A102K, T103I, G104A, N123D, D138E
modifications: SIGNAL (1)..(17)
notes: Gaussia luciferase mutant
B9: K66N P84L E102A S103I A104G E110P D123N L124M V138D: Gaussia luciferase mutant (protein)
chain: B3 chain with P84L, T103I, G110P
modifications: SIGNAL (1)..(17)
notes: Gaussia luciferase mutant
B10: K66R P84A E102K A104G E110A L124M V138E: Gaussia luciferase mutant (protein)
chain: B3 chain with N66R, P84A, A102K, T103S, G110A, N123D, D138E
modifications: SIGNAL (1)..(17)
notes: Gaussia luciferase mutant
B11: N27Y V29G A30D V31L A32V S33V A36G T37D L40F Y97*: Gaussia luciferase mutant (protein)
chain: MGVKVLFALICIAVAEAKPTENNEDFYIGDLVVNFGDTDFDADRGKLPGKKLPLEVLKEMEANARKAGCTRGCLICLSHIKCTPKMKKFIPGRCHTEGDKESAQGGIGEAIVDIPEIPGFKDLEPMEQFIAQVDLCVDCTTGCLKGLANVQCSDLLKKWLPQRCATFASKIQGQVDKIKGAGGD
modifications: SIGNAL (1)..(17)
notes: Gaussia luciferase mutant
B12: K66N H79K P84A E102E S103I D123N L124M V138E K159N I179*: Gaussia luciferase mutant (protein)
chain: MGVKVLFALICIAVAEAKPTENNEDFNIVAVASNFATTDLDADRGKLPGKKLPLEVLKEMEANARNAGCTRGCLICLSKIKCTAKMKKFIPGRCHTYEGDKEIAQGGIGEAIVDIPEIPGFKNMEPMEQFIAQVDLCEDCTTGCLKGLANVQCSDLLKNWLPQRCATFASKIQGQVDKKGAGGD
modifications: SIGNAL (1)..(17)
notes: Gaussia luciferase mutant
B13: A42G Q152C T167G S170T G174N K178S A182Y G183A: Gaussia luciferase mutant (protein)
chain: MGVKVLFALICIAVAEAKPTENNEDFNIVAVASNFATTDLDGDRGKLPGKKLPLEVLKEMEANARKAGCTRGCLICLSHIKCTPKMKKFIPGRCHTYEGDKESAQGGIGEAIVDIPEIPGFKDLEPMEQFIAQVDLCVDCTTGCLKGLANVCCSDLLKKWLPQRCAGFATKIQNQVDSIKGYAGD
modifications: SIGNAL (1)..(17)
notes: Gaussia luciferase mutant
B14: A42G Q152H T167G S170T G174N K178S A182Y G183A: Gaussia luciferase mutant (protein)
chain: B13 chain with C152H
modifications: SIGNAL (1)..(17)
notes: Gaussia luciferase mutant

Test: Luminescence activity assay of purified Gaussia luciferase mutants on coelenterazine derivative ZS2
Type: biochemical
Design: key to Activity of mutant relative to wild-type Gaussia luciferase without the signal peptide: ratio of mutant luminescence intensity to wild-type Gaussia luciferase
Settings: Substrate ZS2 (Table 16)
Outline: (§1)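 Readout: luminescence intensity, as ratio to signal-peptide-free wild-type enzyme. Enzyme 1 μg/mL, substrate 100 μM stock, 10 μL + 90 μL; buffer 50 mM Tris-HCl pH 8.0, 100 mM NaCl, 0.1% Tween-20.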

Activity of mutant relative to wild-type Gaussia luciferase without the signal peptide	Molecule
0.120	B1
0.116	B2
1.880	B3
1.118	B4
0.471	B5
0.459	B6
0.751	B7
0.620	B8
0.041	B9
2.637	B10
0.001	B11
0.001	B12
1.065	B13
0.001	B14

Test: Luminescence activity assay of purified Gaussia luciferase mutants on coelenterazine
Type: biochemical
Design: key to Activity of mutant relative to wild-type Gaussia luciferase without the signal peptide: ratio of mutant luminescence intensity to wild-type Gaussia luciferase
Settings: Substrate CTZ (Table 16)
Outline: as §1

Activity of mutant relative to wild-type Gaussia luciferase without the signal peptide	Molecule
0.146	B1
0.071	B2
0.945	B3
0.755	B4
0.134	B5
0.407	B6
1.554	B7
0.654	B8
0.513	B9
1.073	B10
0.000	B11
0.000	B12
2.527	B13
0.568	B14

Test: Luminescence activity assay of purified Gaussia luciferase mutants on fluoro-coelenterazine
Type: biochemical
Design: key to Activity of mutant relative to wild-type Gaussia luciferase without the signal peptide: ratio of mutant luminescence intensity to wild-type Gaussia luciferase
Settings: Substrate f-CTZ (Table 16)
Description: In this Example, the protein concentration was determined with a BCA quantitative kit (Thermo Scientific™ Pierce™ BCA Protein Assay Kit) accurately. The purified luciferase obtained in Example 5 was diluted with diluent (50 mM Tris-HCl, pH 8.0, 100 mM NaCl, 0.1% (v/v) Tween-20) to 1 μg/mL. The diluted luciferase, taken for 10 μL, was moved into a black 96-well plate, then added with 90 μL of the substrates coelenterazine, fluoro-coelenterazine or coelenterazine derivative ZS2 (purchased from Biolab) which was diluted into 100 μM with the same diluent, and the luminescence intensity of the plate was read with a self-luminescence module of a microplate reader. The mutation site of the mutant, the measured luminescence intensity, the ratio of luminescence intensities of the advantageous mutants to the wild-type Gaussia luciferase without the signal peptide having the sequence shown in SEQ ID NO: 3 are shown in Table 15. The results of catalytic activity assay of the advantageous mutants relative to the wild-type Gaussia luciferase without the signal peptide having the sequence shown in SEQ ID NO: 3 on substrate coelenterazine are shown in FIG. 6. […] The results of catalytic activity assay of the advantageous mutants relative to the wild-type Gaussia luciferase without the signal peptide having the sequence shown in SEQ ID NO: 3 on substrate fluoro-coelenterazine are shown in FIG. 7.
The new mutant library constructed in Example 7 was screened and tested for substrate specificity. Expression and purification schemes were the same as that in Example 5, and the activity assay scheme was the same as that in Example 6. The respective catalytic activities of combinatorial mutants on coelenterazine, fluoro-coelenterazine or coelenterazine derivative ZS2, and coelenterazine derivative ZS26 (purchased from BIOLAB) were assayed, and comparisons among the substrate specificities of the combinatorial mutants were based on the ratios of catalytic activities on two corresponding substrates.

Activity of mutant relative to wild-type Gaussia luciferase without the signal peptide	Molecule
0.155	B1
0.086	B2
6.874	B3
1.728	B4
0.794	B5
0.857	B6
0.404	B7
0.896	B8
5.207	B9
10.315	B10
0.009	B11
0.009	B12
0.520	B13
0.657	B14
